Patent US12552876

Molecular target: HSA-Fuc-GM1 conjugate (human)
Experiment: SPR (Biacore X), HSA-Fuc-GM1 conjugate amine-coupled to CM5 chip, antibody as analyte, bivalent analyte model

HSA-Fuc-GM1 conjugate (human), sequence (P02768 25-609): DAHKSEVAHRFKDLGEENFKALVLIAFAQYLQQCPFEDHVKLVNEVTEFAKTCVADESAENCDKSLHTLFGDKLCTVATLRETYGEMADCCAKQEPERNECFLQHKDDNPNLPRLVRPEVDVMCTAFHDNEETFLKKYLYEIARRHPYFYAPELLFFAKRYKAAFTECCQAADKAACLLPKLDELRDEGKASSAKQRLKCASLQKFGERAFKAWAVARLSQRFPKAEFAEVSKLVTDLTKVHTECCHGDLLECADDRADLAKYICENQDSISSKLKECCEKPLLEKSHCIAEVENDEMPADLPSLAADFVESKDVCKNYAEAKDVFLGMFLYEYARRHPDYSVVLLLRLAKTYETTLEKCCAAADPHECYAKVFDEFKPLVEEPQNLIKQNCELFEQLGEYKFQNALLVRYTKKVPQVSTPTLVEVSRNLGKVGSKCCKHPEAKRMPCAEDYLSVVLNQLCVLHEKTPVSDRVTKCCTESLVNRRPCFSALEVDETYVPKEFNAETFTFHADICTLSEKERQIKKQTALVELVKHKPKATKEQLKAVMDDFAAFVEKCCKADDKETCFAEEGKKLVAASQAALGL

B1: mAb FL134.33 (antibody, V domains shown)
VH: AVQLQESGPDLVKPSQSLSLTCTVTGYSITSGYSWHWIRQFPGNKLEWVGYIHYRGNTNYNPSLKSRVSITRDTYKNQFFLQLNSLTTEDTATYYCAQEPVRNYAMDFWGQGTSVTVSS
VL: DIVMTQSPDTLSVTPGDRVSLSCRASQSISDDLHWYQQKSHESPRLLIKYVSQSISGIPSRFSGSGSRSDFTLTINSVEPEDVGLYYCQNGHGFPPTFGGGTKLEIK
What does the source list for B1?
Kd: 58 µM; koff: 0.117 s⁻¹; kon: 2010 M⁻¹ s⁻¹
